The values that follow come from paper PMC10786891, “Massively parallel profiling of RNA-targeting CRISPR-Cas13d”.

To fix the notation:
B1: target 2 MT 5'PFS GGU 3'PFS UAA (mixed)
RNA 1: CACCCGUGCAAAAUUGCAGGGGUCUAAAACCUUCUCCAAAUUGUUUCAUCCU
RNA 2: GGGAAUGGAUCCACAUCUACGAAUUCGGUAGGAUGAAACAAUUUGGAGAAGUAAAGAUCGGAAGAGCACACGU
B2: target 2 MT 5'PFS AGG 3'PFS CUG (mixed)
RNA 1: CACCCGUGCAAAAUUGCAGGGGUCUAAAACCUUCUCCAAAUUGUUUCAUCCU
RNA 2: GGGAAUGGAUCCACAUCUACGAAUUCAGGAGGAUGAAACAAUUUGGAGAAGCUGAGAUCGGAAGAGCACACGU
B3: target 2 MT 5'PFS GCA 3'PFS CGA (mixed)
RNA 1: CACCCGUGCAAAAUUGCAGGGGUCUAAAACCUUCUCCAAAUUGUUUCAUCCU
RNA 2: GGGAAUGGAUCCACAUCUACGAAUUCGCAAGGAUGAAACAAUUUGGAGAAGCGAAGAUCGGAAGAGCACACGU
B4: target 2 MT 5'PFS AGG 3'PFS CUC (mixed)
RNA 1: CACCCGUGCAAAAUUGCAGGGGUCUAAAACCUUCUCCAAAUUGUUUCAUCCU
RNA 2: GGGAAUGGAUCCACAUCUACGAAUUCAGGAGGAUGAAACAAUUUGGAGAAGCUCAGAUCGGAAGAGCACACGU
B5: target 2 MT 5'PFS GCA 3'PFS CGC (mixed)
RNA 1: CACCCGUGCAAAAUUGCAGGGGUCUAAAACCUUCUCCAAAUUGUUUCAUCCU
RNA 2: GGGAAUGGAUCCACAUCUACGAAUUCGCAAGGAUGAAACAAUUUGGAGAAGCGCAGAUCGGAAGAGCACACGU
B6: target 2 MT 5'PFS UAU 3'PFS AAU (mixed)
RNA 1: CACCCGUGCAAAAUUGCAGGGGUCUAAAACCUUCUCCAAAUUGUUUCAUCCU
RNA 2: GGGAAUGGAUCCACAUCUACGAAUUCUAUAGGAUGAAACAAUUUGGAGAAGAAUAGAUCGGAAGAGCACACGU
B7: target 2 MT 5'PFS GGA 3'PFS UUG (mixed)
RNA 1: CACCCGUGCAAAAUUGCAGGGGUCUAAAACCUUCUCCAAAUUGUUUCAUCCU
RNA 2: GGGAAUGGAUCCACAUCUACGAAUUCGGAAGGAUGAAACAAUUUGGAGAAGUUGAGAUCGGAAGAGCACACGU
B8: target 2 MT 5'PFS CUC 3'PFS AUG (mixed)
RNA 1: CACCCGUGCAAAAUUGCAGGGGUCUAAAACCUUCUCCAAAUUGUUUCAUCCU
RNA 2: GGGAAUGGAUCCACAUCUACGAAUUCCUCAGGAUGAAACAAUUUGGAGAAGAUGAGAUCGGAAGAGCACACGU
B9: target 2 MT 5'PFS CUC 3'PFS AUA (mixed)
RNA 1: CACCCGUGCAAAAUUGCAGGGGUCUAAAACCUUCUCCAAAUUGUUUCAUCCU
RNA 2: GGGAAUGGAUCCACAUCUACGAAUUCCUCAGGAUGAAACAAUUUGGAGAAGAUAAGAUCGGAAGAGCACACGU
B10: target 2 MT 5'PFS UCU 3'PFS AUA (mixed)
RNA 1: CACCCGUGCAAAAUUGCAGGGGUCUAAAACCUUCUCCAAAUUGUUUCAUCCU
RNA 2: GGGAAUGGAUCCACAUCUACGAAUUCUCUAGGAUGAAACAAUUUGGAGAAGAUAAGAUCGGAAGAGCACACGU
B11: target 2 MT 5'PFS UGG 3'PFS AUG (mixed)
RNA 1: CACCCGUGCAAAAUUGCAGGGGUCUAAAACCUUCUCCAAAUUGUUUCAUCCU
RNA 2: GGGAAUGGAUCCACAUCUACGAAUUCUGGAGGAUGAAACAAUUUGGAGAAGAUGAGAUCGGAAGAGCACACGU
B12: target 2 MT 5'PFS GGA 3'PFS UUU (mixed)
RNA 1: CACCCGUGCAAAAUUGCAGGGGUCUAAAACCUUCUCCAAAUUGUUUCAUCCU
RNA 2: GGGAAUGGAUCCACAUCUACGAAUUCGGAAGGAUGAAACAAUUUGGAGAAGUUUAGAUCGGAAGAGCACACGU
B13: target 2 MT 5'PFS UGG 3'PFS AUC (mixed)
RNA 1: CACCCGUGCAAAAUUGCAGGGGUCUAAAACCUUCUCCAAAUUGUUUCAUCCU
RNA 2: GGGAAUGGAUCCACAUCUACGAAUUCUGGAGGAUGAAACAAUUUGGAGAAGAUCAGAUCGGAAGAGCACACGU
B14: target 2 MT 5'PFS CUC 3'PFS AUU (mixed)
RNA 1: CACCCGUGCAAAAUUGCAGGGGUCUAAAACCUUCUCCAAAUUGUUUCAUCCU
RNA 2: GGGAAUGGAUCCACAUCUACGAAUUCCUCAGGAUGAAACAAUUUGGAGAAGAUUAGAUCGGAAGAGCACACGU
B15: target 2 MT 5'PFS AUU 3'PFS AUG (mixed)
RNA 1: CACCCGUGCAAAAUUGCAGGGGUCUAAAACCUUCUCCAAAUUGUUUCAUCCU
RNA 2: GGGAAUGGAUCCACAUCUACGAAUUCAUUAGGAUGAAACAAUUUGGAGAAGAUGAGAUCGGAAGAGCACACGU
B16: target 2 MT 5'PFS GGA 3'PFS UUA (mixed)
RNA 1: CACCCGUGCAAAAUUGCAGGGGUCUAAAACCUUCUCCAAAUUGUUUCAUCCU
RNA 2: GGGAAUGGAUCCACAUCUACGAAUUCGGAAGGAUGAAACAAUUUGGAGAAGUUAAGAUCGGAAGAGCACACGU
B17: target 2 MT 5'PFS GGU 3'PFS UAU (mixed)
RNA 1: CACCCGUGCAAAAUUGCAGGGGUCUAAAACCUUCUCCAAAUUGUUUCAUCCU
RNA 2: GGGAAUGGAUCCACAUCUACGAAUUCGGUAGGAUGAAACAAUUUGGAGAAGUAUAGAUCGGAAGAGCACACGU
B18: target 2 MT 5'PFS GGA 3'PFS UUC (mixed)
RNA 1: CACCCGUGCAAAAUUGCAGGGGUCUAAAACCUUCUCCAAAUUGUUUCAUCCU
RNA 2: GGGAAUGGAUCCACAUCUACGAAUUCGGAAGGAUGAAACAAUUUGGAGAAGUUCAGAUCGGAAGAGCACACGU
B19: target 2 MT 5'PFS CUC 3'PFS AUC (mixed)
RNA 1: CACCCGUGCAAAAUUGCAGGGGUCUAAAACCUUCUCCAAAUUGUUUCAUCCU
RNA 2: GGGAAUGGAUCCACAUCUACGAAUUCCUCAGGAUGAAACAAUUUGGAGAAGAUCAGAUCGGAAGAGCACACGU
B20: target 2 MT 5'PFS CUG 3'PFS UAA (mixed)
RNA 1: CACCCGUGCAAAAUUGCAGGGGUCUAAAACCUUCUCCAAAUUGUUUCAUCCU
RNA 2: GGGAAUGGAUCCACAUCUACGAAUUCCUGAGGAUGAAACAAUUUGGAGAAGUAAAGAUCGGAAGAGCACACGU
B21: target 2 MT 5'PFS CUG 3'PFS UAU (mixed)
RNA 1: CACCCGUGCAAAAUUGCAGGGGUCUAAAACCUUCUCCAAAUUGUUUCAUCCU
RNA 2: GGGAAUGGAUCCACAUCUACGAAUUCCUGAGGAUGAAACAAUUUGGAGAAGUAUAGAUCGGAAGAGCACACGU
B22: target 1 insC 3' of 9,insU 3' of 1 (mixed)
RNA 1: CACCCGUGCAAAAAUGCAGGGGUCUAAAACUGAGCGGAUAACCUCUCUAUGG
RNA 2: GGGAAUGGAUCCACAUCUACGAAUUCGUACCAUAGAGAGGUUACUCCGCUCAUCCGAGAUCGGAAGAGCACACGU
B23: target 1 insU 3' of 14,insA 3' of 4 (mixed)
RNA 1: CACCCGUGCAAAAAUGCAGGGGUCUAAAACUGAGCGGAUAACCUCUCUAUGG
RNA 2: GGGAAUGGAUCCACAUCUACGAAUUCGUACCAUAGAGAUGGUUAUCCGCAUCACCGAGAUCGGAAGAGCACACGU

The target in this data set is T1, EsCas13d, nuclease-dead (Eubacterium siraeum, UniProt B0MS50, R295A;H300A;R849A;H854A).
T1 sequence: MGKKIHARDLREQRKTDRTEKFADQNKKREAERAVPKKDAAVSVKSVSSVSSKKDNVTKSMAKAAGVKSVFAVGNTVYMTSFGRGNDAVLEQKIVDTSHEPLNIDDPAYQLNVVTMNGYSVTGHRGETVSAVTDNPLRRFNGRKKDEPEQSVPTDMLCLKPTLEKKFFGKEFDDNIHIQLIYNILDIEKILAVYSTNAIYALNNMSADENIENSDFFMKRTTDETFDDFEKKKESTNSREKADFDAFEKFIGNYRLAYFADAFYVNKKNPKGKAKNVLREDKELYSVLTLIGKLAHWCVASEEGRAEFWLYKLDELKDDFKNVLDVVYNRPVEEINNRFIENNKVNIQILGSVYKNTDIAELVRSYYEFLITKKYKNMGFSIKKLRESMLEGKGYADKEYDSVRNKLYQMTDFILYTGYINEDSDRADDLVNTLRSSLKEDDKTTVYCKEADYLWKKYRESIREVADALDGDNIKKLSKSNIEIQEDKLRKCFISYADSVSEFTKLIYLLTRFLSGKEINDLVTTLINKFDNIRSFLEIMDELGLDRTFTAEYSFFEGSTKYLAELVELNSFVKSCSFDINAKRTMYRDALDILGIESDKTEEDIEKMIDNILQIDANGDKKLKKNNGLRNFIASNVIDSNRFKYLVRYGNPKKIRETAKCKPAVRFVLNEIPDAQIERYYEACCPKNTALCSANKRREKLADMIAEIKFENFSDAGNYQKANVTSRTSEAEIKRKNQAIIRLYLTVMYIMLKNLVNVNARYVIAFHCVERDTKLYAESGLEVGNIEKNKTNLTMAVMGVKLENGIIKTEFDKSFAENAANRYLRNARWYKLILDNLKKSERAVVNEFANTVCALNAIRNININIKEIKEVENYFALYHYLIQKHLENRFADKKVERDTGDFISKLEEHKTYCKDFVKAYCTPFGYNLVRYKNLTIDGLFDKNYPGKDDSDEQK
Kind of data set: crRNA (strand 1, pre-loaded); Mg2+; 40 mM Tris-HCl pH 7.5, 150 mM NaCl, 6 mM MgCl2, 1 mM DTT, 0.1% Tween-20, 0.2 mg/ml BSA; 25 C; 10 min per concentration, then washed. Particulars: tags: His6-TwinStrep-SUMO cleaved; N-terminal SNAP kept (SNAP-Surface 488); label: 3' end held by stalled T7 RNA polymerase.
B1 showed a Kd of 9.8 ± 1.1 nM. For B2, the dissociation constant (Kd) amounted to 7.4 ± 0.9 nM. The value for B3 was 8.4 ± 1.1 nM.

B4 displayed an equilibrium dissociation constant (Kd) of 9.4 ± 1.7 nM. As to B5, the Kd is 13.1 ± 1.9 nM.

For B6, binding was characterised by a dissociation constant (Kd) of 16.2 ± 1.5 nM.

Turning to B7, binding was characterised by a dissociation constant (Kd) of 18.3 ± 2.7 nM. Next, B8: 1.74 ± 0.26 nM; B9: 2.11 ± 0.28 nM. Regarding B10, binding was put at a Kd of 9.3 ± 1.1 nM.

For the molecule B11, binding was put at a Kd of 5.2 ± 0.5 nM. Regarding B12, the dissociation constant (Kd) came to 41 ± 9 nM. Next, B13: 5.5 ± 0.6 nM. Turning to B14, the Kd was 2.2 ± 0.4 nM. B15 came in with a Kd of 7.5 ± 0.8 nM. The molecule B16 showed a Kd of 18.1 ± 3.5 nM. As for B17, binding was put at a Kd of 17.6 ± 3.3 nM.

B18 came in with a dissociation constant (Kd) of 28 ± 6 nM. Next, B19: 1.91 ± 0.31 nM; B20: 2.77 ± 0.2 nM; B21: 5.3 ± 1.2 nM. The value for B22 was 14.6 ± 0.7 nM; that for B23 was 26 ± 4 nM.

As usually defined, the Kd is the concentration at which binding is half-saturated.
